Biological target: Mycoplasma hyopneumoniae enolase (Mhp Eno, MHP168_271) (Mycoplasma hyopneumoniae)
Experiment: crystal structure

Question: With “Mycoplasma hyopneumoniae enolase (Mhp Eno, MHP168_271) (enzyme)” as the substance, how does the stoichiometry N read?
Answer: 8

From article PMC6585157
